Experimental data published in ChEMBL document CHEMBL2074046, “Selectivity of the polyspecific cation transporter rOCT1 is changed by mutation of aspartate 475 to glutamate” (Mol Pharmacol, 1999).

Key:
[1] = biological target: T1, Solute carrier family 22 member 1 (Rattus norvegicus, UniProt Q63089); test: TP_TRANSPORTER: inhibition of MPP+ uptake (MPP+: 0.1 uM) in OCT1-expressing HEK293 cells; assay type: functional, cell-based
T1 sequence (Q63089 whole entry): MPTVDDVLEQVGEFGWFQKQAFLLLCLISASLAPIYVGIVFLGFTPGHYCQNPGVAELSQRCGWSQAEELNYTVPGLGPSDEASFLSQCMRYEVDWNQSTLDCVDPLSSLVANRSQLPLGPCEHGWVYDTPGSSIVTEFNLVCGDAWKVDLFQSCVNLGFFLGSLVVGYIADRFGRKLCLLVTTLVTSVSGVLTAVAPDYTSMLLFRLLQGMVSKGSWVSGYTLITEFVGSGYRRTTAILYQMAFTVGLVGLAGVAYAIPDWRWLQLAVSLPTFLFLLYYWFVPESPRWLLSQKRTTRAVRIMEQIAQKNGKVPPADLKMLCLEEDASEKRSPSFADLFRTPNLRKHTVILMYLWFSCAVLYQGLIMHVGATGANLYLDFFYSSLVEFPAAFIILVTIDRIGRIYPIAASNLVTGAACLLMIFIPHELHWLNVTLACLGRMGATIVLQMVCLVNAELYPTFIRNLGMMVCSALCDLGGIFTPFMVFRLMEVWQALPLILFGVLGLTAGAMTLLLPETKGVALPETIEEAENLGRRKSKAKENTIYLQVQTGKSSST

[2] = biological target: T1, Solute carrier family 22 member 1
[3] = substrate: C[n+]1ccc(-c2ccccc2)cc1; test: TP_TRANSPORTER: uptake in OCT1-expressing HEK293 cells; assay type: functional, cell-based
[4] = substrate: CC[N+](CC)(CC)CC; test: cells, lysate or membranes named
[5] = substrate: C[N+](C)(C)CCO; test: cells, lysate or membranes named
[6] = substrate: C[n+]1ccc(-c2ccccc2)cc1; test: (§1) TP_TRANSPORTER: uptake in Xenopus laevis oocytes; assay type: functional, cell-based, Oocyte
[7] = substrate: CNC(=O)c1cccnc1; test: as §1; assay type: functional, cell-based, Oocyte

CCCCC[N+](CCCCC)(CCCCC)CCCCC [TETRAPENTYLAMMONIUM]
IC50 [1]: 180 nM

CCCC[N+](CCCC)(CCCC)CCCC [TETRABUTHYLAMMONIUM]
IC50 [2]: 3000 nM

B1: Solute carrier family 22 member 1 (Rattus norvegicus) (protein)
chain: T1 sequence (Q63089 whole entry)
Km [3]: 9.4 µM
Km [4]: 129 µM
Km [5]: 370 µM
Km [6]: 2.7 µM
Km [7]: 126 µM
